Laboratory results reported in paper PMC6150654.

Target: Human PTH1 receptor with a His-tag (human) (UniProt Q03431)
Experiment: QCM biosensor; PTH1R amine coupled to an LNB-carboxyl chip (Attana Cell 200); PTH injected at 4-20 ug/mL, 35 uL, 25 uL/min, dissociation 510 s; 20 °C; 10 mM HEPES, 150 mM NaCl, 0.005% Tween-20, pH 7.4; rate constant distributions (AIDA) and two-site model fitted to the sensorgrams one by one

Chain of UniProt Q03431 (Q03431 27-593): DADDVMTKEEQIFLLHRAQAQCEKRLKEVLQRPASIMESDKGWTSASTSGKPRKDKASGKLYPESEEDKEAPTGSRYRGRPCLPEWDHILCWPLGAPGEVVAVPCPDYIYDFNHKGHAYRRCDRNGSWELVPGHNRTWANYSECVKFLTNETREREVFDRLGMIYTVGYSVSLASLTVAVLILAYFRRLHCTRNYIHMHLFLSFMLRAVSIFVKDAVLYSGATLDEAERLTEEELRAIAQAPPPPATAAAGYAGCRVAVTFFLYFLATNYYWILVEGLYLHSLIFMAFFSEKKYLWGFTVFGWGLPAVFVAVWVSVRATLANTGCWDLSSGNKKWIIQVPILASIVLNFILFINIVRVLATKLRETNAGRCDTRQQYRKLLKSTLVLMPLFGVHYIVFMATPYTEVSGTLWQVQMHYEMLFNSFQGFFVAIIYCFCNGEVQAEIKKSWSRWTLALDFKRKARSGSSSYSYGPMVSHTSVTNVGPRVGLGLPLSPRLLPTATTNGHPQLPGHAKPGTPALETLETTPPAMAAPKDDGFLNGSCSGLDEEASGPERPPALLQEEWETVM

With parathyroid hormone (1-34) (peptide) the log10(ka), both distributions of the RCD (4129 nM injection) was 4, the log10(ka), first cluster (two-site fit) was 4.2 and the log10(ka), second cluster (two-site fit) was 3.7. The log10(kd), first cluster (two-site fit) was -0.9, the log10(kd), one distribution of the RCD (4129 nM injection) was -2 and the log10(kd), other distribution of the RCD (4129 nM injection) was -1. The log10(kd), second cluster (two-site fit) was -2.3.
